Results reported in US20090098111A1 (CALIFORNIA INSTITUTE OF TECHNOLOGY, published 2009).

B1: GST-XtopBP1 (333-646) (other)
chain: MASRLDPPADTLENLDISSLQAPDDLLDGCRIYLCGFGGRKLDKLRKLINNGGGVRFNQLTGDVTHIIVGETDEELKQFLNKTQHRPYVLTVKWLLDSFAKGHLQPEEIYFHSSYQQTEMPSPFEPAINLTANKMSSTRGPLNHTRNHQADEDLLSQYTENNSTLIEDEHPKTSNTNSISQMSMHEDMTTCTSQSGLADTSTIIEGGLFSRKQFMVLGFLEEDEACIIDIIKKSAGKVLSSQKRAIADYAVVPLLGCEVESTVGEVVTNAWLGMCIEQEKLLDPHSNALFTPVPFLEGSTPLRECVLSVSQFMG
notes: BRCT-containing fragment; not shown: glutathione-S-transferase (GST) fusion partner
B2: GST-XtopBP1 (1-348) (other)
chain: MASSENEPFCVKFIKSPENSEYFFKAYEAIKQIQSDESLQLTEEREALLLKEKDKSLYICDPFSGAAFSHLKKLGCRIVGPQVVIFCMENQRRVPRAEYPVYNMAMADVTISCTSLDKETREDVHHYVQIMGGCVYRDLNVSVTHLIAGEVGSKKYLVAASLEKPILLPSWVKELWEKSNQRIIRYSDVNMTEYLCPIFRGCTICVTGLSSLDRKEVQRLTALHGGEYTGQLKMNESTHLIVQEAKGQKYECARKWNVHCISVQWFFDSIEKGFCQDETMYKIEPASTIKSVPDTSTPTGGNSKPNSRALYDVSQISNISTSCVNESAFNSAMASRLDPPADTLENLD
notes: as for B1
B3: GST-XtopBP1 (1197-1513) (other)
chain: EFEPKSAMRTPVIENNLQSPTKPDHLTPTPQAPSIAFPLANPPVAPQPREKPVQPFSKEETLKERRFQLSSLDPQERIDYSQLIEELGGVVIEKQCFDPSCTHIVVGHPLRNEKYLASMAAGKWVLHRSYLEACRAAKRFIQEEDYEWGSISILSAVTNINPQQRMLAEAAMRWRKKLQGIKQNMGIAEGAFSGWKVILNVDQTKEPGFKRLLQSGGAKVFAGHSSPLFKEASHLFADFSKLKPDEPRVNVAEAAAQGVNCLKPEYIADYLMKELPPPMNNYCLPDAIPYVRVTGTGLSRKRKTSGDVSDVKRSRHY
notes: as for B1
B4: GST-XtopBP1 (623-984) (other)
chain: TPVPFLEGSTPLRECVLSVSQFMGAERDSLVYLAGLLGAKVQEFFVRKANPKKGMFASTHLVLKDAEGSKYEAAKKWNLPAVTMNWLLQCARTGRKADEDSYLVDNVPEEDKDESFISQTYKPQAIRLSMHAPCHLENHPEALTKAAVTPLDMNRFKSKAFQSVISQHNKNPQTSGGESKVLQREPSLHLDTPSKFLSKDKLFKPSFDVKDALAALETPGGPNQKNRTQSTPLSEVIGRNLQLAIANSTRQTAAVTASPQLKAAEKKEFDNSKLLINVVICVSKKLIKKQGELNGIAASLGAEYRWCFDESVTHFIYHGRQNDMSREYKSVKERSGIYIVSEHWLFACSEQQKRVPEALYPH
notes: BRCT-containing fragment; also called GST fusion of the 623-984 segment from XtopBP1; not shown: glutathione-S-transferase (GST) fusion partner

Columns and labels:
[1] = target: T1, Xatr (endogenous Xenopus ATR in egg extracts) (Xenopus laevis, UniProt Q9DE14 1-2654); assay: GST pull-down from Xenopus egg extracts, immunoblot
T1 construct: Endogenous protein of whole or mock-depleted egg extracts, where endogenous Xatrip is also present

[2] = target: T1, Xatr (endogenous Xenopus ATR in egg …); assay: GST pull-down from Xenopus egg extracts, immunoblot (FIG. 4A)
Experimental: The extracts were filtered through a G25 Sephadex column to remove endogenous glutathione and incubated with glutathione agarose beads. The beads were isolated and immunoblotted for Xatr (top) and Xatrip (bottom). In FIG. 4B, egg extracts (lane 1) were immunodepleted with control (lane 2) or anti-Xatrip antibodies (lanes 3 and 4). For lane 4, recombinant XatripΔN222-FLAG was added back later. Extracts were immunoblotted with anti-Xatr (top) and anti-Xatrip antibodies (bottom). […] Binding of Xatr to glutathione beads was determined by immunoblotting as in FIG. 4A. In FIG. 4D, Xatr was immunoprecipitated from mock-depleted (lanes 1 and 2) and Xatrip-depleted extracts (lanes 3 and 4). Twice as much Xatrip-depleted extract was immunoprecipitated due to its reduced content of Xatr. […] Samples were also immunoblotted for Xatr (top) and Xatrip (middle).

T1 sequence (Q9DE14 whole entry): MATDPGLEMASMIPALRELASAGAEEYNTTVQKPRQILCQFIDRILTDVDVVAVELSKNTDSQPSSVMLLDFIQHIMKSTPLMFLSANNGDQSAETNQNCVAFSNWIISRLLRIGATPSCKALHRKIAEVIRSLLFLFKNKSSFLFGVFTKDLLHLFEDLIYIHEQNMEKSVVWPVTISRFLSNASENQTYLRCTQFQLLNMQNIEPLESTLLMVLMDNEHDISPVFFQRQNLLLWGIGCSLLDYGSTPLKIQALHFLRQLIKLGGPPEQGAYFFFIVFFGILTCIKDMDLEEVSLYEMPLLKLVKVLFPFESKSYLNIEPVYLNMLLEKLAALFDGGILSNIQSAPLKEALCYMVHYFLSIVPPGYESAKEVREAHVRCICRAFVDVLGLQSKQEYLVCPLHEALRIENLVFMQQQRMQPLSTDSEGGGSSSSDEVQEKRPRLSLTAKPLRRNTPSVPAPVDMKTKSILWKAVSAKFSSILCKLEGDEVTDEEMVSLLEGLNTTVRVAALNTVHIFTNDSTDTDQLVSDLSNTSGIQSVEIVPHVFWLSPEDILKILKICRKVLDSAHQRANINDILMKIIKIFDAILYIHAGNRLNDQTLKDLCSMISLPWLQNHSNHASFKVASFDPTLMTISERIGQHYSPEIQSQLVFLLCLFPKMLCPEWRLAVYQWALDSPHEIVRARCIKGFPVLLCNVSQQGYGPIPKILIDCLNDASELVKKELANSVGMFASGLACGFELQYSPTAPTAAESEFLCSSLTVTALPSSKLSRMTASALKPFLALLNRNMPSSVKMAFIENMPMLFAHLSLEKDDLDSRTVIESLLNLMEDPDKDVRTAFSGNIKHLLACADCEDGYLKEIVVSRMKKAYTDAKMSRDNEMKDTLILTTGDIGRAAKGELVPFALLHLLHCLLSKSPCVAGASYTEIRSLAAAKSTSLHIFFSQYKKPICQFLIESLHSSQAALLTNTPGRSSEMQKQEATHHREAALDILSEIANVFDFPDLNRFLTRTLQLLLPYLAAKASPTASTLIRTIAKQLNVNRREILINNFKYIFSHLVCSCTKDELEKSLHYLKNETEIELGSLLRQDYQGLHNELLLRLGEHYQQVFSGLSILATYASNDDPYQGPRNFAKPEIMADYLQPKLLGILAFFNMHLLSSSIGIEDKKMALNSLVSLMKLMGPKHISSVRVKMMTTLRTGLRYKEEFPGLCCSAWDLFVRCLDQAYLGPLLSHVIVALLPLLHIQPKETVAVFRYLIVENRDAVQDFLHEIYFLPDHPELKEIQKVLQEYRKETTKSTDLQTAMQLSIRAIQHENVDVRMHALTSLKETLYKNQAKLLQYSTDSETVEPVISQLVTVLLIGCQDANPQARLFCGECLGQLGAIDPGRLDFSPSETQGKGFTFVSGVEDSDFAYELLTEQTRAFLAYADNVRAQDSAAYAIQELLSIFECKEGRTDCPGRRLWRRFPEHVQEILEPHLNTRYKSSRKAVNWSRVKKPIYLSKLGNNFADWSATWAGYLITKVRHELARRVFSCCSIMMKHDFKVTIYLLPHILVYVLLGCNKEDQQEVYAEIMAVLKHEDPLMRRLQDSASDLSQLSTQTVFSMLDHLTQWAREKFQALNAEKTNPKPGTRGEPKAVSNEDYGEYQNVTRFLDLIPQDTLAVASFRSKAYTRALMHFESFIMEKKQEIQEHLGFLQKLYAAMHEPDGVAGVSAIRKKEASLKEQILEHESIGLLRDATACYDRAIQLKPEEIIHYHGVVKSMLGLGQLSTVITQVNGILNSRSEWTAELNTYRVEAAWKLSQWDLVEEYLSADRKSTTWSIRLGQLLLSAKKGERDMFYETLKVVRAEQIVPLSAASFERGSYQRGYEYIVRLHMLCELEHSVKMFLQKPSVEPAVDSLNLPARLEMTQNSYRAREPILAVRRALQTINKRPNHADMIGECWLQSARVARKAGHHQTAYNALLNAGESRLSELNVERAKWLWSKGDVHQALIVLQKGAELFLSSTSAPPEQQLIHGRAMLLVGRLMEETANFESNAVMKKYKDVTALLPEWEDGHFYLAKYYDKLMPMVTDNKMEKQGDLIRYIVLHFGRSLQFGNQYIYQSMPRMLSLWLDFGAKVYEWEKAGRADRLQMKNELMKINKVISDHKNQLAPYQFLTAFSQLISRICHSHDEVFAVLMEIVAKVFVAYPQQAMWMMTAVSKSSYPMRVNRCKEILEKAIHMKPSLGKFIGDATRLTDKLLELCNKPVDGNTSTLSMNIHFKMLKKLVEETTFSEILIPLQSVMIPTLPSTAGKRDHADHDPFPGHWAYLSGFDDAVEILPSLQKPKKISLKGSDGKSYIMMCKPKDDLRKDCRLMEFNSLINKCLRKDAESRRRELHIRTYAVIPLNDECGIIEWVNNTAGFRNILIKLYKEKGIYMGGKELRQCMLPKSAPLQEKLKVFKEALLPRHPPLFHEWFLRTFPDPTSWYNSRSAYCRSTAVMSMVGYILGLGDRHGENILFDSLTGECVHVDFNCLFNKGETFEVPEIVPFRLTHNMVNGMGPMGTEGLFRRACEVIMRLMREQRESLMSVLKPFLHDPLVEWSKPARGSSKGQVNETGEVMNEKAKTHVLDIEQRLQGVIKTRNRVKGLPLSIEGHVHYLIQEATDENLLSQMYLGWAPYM

Row | binding result [1] | binding result [2] | Binder
1 | no binding | – | B1
2 | no binding | – | B2
3 | – | no binding | B3
4 | no binding | – | B4
